For assay [1], the target named is T1, Human alpha-synuclein (human, UniProt P37840 1-140). Kind of assay: direct binding ELISA, plates coated with human alpha-synuclein, anti-hIgG-HRP detection. From the text: (§1) FIG. 46A is a graph showing alpha-synuclein direct binding ELISA. Human alpha-synuclein was coated on ELISA plates, treated with several dilutions of test reagents, and antibody binding at the indicated concentrations was detected with an HRP conjugated anti-hIgG secondary, measured by absorbance at 450 nm.
A general note: An ELISA detects its analyte on a solid surface through an enzyme-linked reagent.

For assay [2], the target named is T1, Human alpha-synuclein. The assay is described as follows: direct binding ELISA, plates coated with human alpha-synuclein; 12F4 hIgG1 as reference.
Excerpt: as §1

B1: FC5-H62(T33C/A104C)-12F4(LC) hIgG1 (bispecific antibody)
heavy: not shown
light: DVQLVESGGGLVQPGGSLRLSCAASGFKITHYCTGWFRQAPGKEREFVSRITWGGDNTFYSNSVKGRFTISRDNSKNTVYLQMNSLRAEDTAVYYCAAGSTSTCTPLRVDYWGQGTLVTVSSGGGGSSYELTQPPSVSVSPGQTARITCSGEALPMQFAHWYQQRPGKAPVIVVYKDSERPSGVPERFSGSSSGTTATLTITGVQAEDEADYYCQSPDSTNTYEVFGGGTKLTVLSQPKAAPSVTLFPPSSEELQANKATLVCLISDFYPGAVTVAWKADSSPVKAGVETTTPSKQSNNKYAASSYLSLTPEQWKSHRSYSCQVTHEGSTVEKTVAPTECS
notes: also called hFC5.2-12F4(LC) hIgG1; FC5-H62(T33C/A104C)-12F4 hIgG1
In the case of B1, the binding result in assay [1] is “binds”.

B2: FC5-H62(T33C/A104C)-12F4(LC) hIgG4P/G1 agly (bispecific antibody)
heavy: EVQLVESGGGLVEPGGSLRLSCAVSGFDFEKAWMSWVRQAPGQGLQWVARIKSTADGGTTSYAAPVEGRFIISRDDSRNMLYLQMNSLKTEDTAVYYCTSAHWGQGTLVTVSSASTKGPSVFPLAPCSRSTSESTAALGCLVKDYFPEPVTVSWNSGALTSGVHTFPAVLQSSGLYSLSSVVTVPSSSLGTKTYTCNVDHKPSNTKVDKRVESKYGPPCPPCPAPEFLGGPSVFLFPPKPKDTLMISRTPEVTCVVVDVSQEDPEVQFNWYVDGVEVHNAKTKPREEQFQSTYRVVSVLTVLHQDWLNGKEYKCKVSNKGLPSSIEKTISKAKGQPREPQVYTLPPSRDELTKNQVSLTCLVKGFYPSDIAVEWESNGQPENNYKTTPPVLDSDGSFFLYSKLTVDKSRWQQGNVFSCSVMHEALHNHYTQKSLSLSPG
light: B1 light
In the case of B2, in assay [1], the binding result is recorded as “binds”.

B3: FC5-H62(T33C/A104C)-12F4(LC) hIgG2 SAA (bispecific antibody)
heavy: EVQLVESGGGLVEPGGSLRLSCAVSGFDFEKAWMSWVRQAPGQGLQWVARIKSTADGGTTSYAAPVEGRFIISRDDSRNMLYLQMNSLKTEDTAVYYCTSAHWGQGTLVTVSSASTKGPSVFPLAPCSRSTSESTAALGCLVKDYFPEPVTVSWNSGALTSGVHTFPAVLQSSGLYSLSSVVTVPSSNFGTQTYTCNVDHKPSNTKVDKTVERKSCVECPPCPAPPAAAPSVFLFPPKPKDTLMISRTPEVTCVVVDVSHEDPEVQFNWYVDGVEVHNAKTKPREEQFNSTFRVVSVLTVVHQDWLNGKEYKCKVSNKGLPAPIEKTISKTKGQPREPQVYTLPPSREEMTKNQVSLTCLVKGFYPSDIAVEWESNGQPENNYKTTPPMLDSDGSFFLYSKLTVDKSRWQQGNVFSCSVMHEALHNHYTQKSLSLSPG
light: B1 light
As to B3, the binding result in assay [1] is recorded as “binds”.

B4: FC5-H62(T33C/A104C)-12F4(LC) hIgG1 agly (N297Q) (bispecific antibody)
heavy: not shown
light: B1 light
notes: also called FC5-H62(T33C/A104C)-12F4 hIgG1 agly
With B4, the binding result in assay [1] is “binds”.

B5: 12F4 hIgG1 (antibody, V domains shown)
VH: EVQLVESGGGLVEPGGSLRLSCAVSGFDFEKAWMSWVRQAPGQGLQWVARIKSTADGGTTSYAAPVEGRFIISRDDSRNMLYLQMNSLKTEDTAVYYCTSAHWGQGTLVTVSS
VL: SYELTQPPSVSVSPGQTARITCSGEALPMQFAHWYQQRPGKAPVIVVYKDSERPSGVPERFSGSSSGTTATLTITGVQAEDEADYYCQSPDSTNTYEVFGGGTKLTVLS
notes: also called anti-alpha synuclein (12F4); 12F4 without FC5 attached
Take B5: the binding result in assay [2] is “binds”.

These data come from patent publication US20220089704A1 (Biogen, published 2022).
